Measured values from doi:10.1101/2021.02.18.431817 (bioRxiv, 2021).

Tests used:
SAP3:CFP = biological target: T1, SAP3:CFP (A. thaliana, UniProt Q9ZNU9 1-163); experiment: FRET or BRET
T1 sequence (looked up): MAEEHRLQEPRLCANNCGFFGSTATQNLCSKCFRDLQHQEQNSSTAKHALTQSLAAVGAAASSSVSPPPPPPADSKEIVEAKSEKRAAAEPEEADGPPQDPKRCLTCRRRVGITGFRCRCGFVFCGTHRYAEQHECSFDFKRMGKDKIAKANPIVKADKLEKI

SAP2:CFP = biological target: T2, SAP2:CFP (A. thaliana, UniProt Q8H0X0 1-173); experiment: FRET or BRET
T2 sequence (looked up): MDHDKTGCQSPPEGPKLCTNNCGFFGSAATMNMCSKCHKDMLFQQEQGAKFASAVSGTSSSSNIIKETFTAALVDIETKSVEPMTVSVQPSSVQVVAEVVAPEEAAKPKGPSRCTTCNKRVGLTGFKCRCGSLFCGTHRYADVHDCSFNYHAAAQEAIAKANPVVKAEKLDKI

FRET efficiency, fold of negative control (SAP3:CFP): > 5 fold of negative control
FRET efficiency, fold of negative control (SAP2:CFP): > 5 fold of negative control
B1: CML49:YFP (natural protein, A. thaliana, UniProt Q8W4L0 1-335, looked up)
chain: MSGYPPSSQGYGYGGNPPPPQPPYGSTGNNPPPYGSSGSNPPPPYGSSASSPYAVPYGAQPAPYGAPPSAPYASLPGDHNKPHKEKPHGASYGSPSPGGYGAHPSSGPSDYGGYGGAPQQSGHGGGYGGAPQQSGHGGGYGAPPPQASYGSPFASLVPSAFPPGTDPNIVACFQAADRDNSGFIDDKELQGALSSYNQSFSIRTVHLLMYLFTNSNVRKIGPKEFTSLFFSLQNWRSIFERFDKDRSGRIDTNELRDALMSLGFSVSPVILDLLVSKFDKSGGRNRAIEYDNFIECCLTVKGLTEKFKEKDTALSGSAIFNYENFMLTVLPFLVA
